Source: publication PMC6355029, “Structure of the DP1–DP2 PolD complex bound with DNA and its implications for the evolutionary history of DNA and RNA polymerases”

Assays:
[1] = molecular target: Pyrococcus abyssi PolD DP1 subunit, exonuclease-deficient variant H451A, full length (Pyrococcus abyssi) (UniProt Q9V2F3); test: AUC; sedimentation velocity of the copurified PolD complex at 0.2, 0.5 and 1 mg/ml, 42,000 rpm, 20°C; continuous c(s) distribution (Sedfit); sediments at 8 S, frictional ratio 1.4
[2] = molecular target: T1, PolD DP1 H451A (exonuclease-deficient small subunit);PolD DP2 (large catalytic subunit) (Pyrococcus abyssi;Pyrococcus abyssi, UniProt Q9V2F3;Q9V2F4;Q9V2F4 1-619;1-954;1140-1455, H451A|); test: cryo-EM structure; Zn2+ and Fe3+ in protein; no nucleotide; Fluorescence anisotropy: 20 mM sodium succinate pH 6, 100 mM NaCl, 25 C, 5 nM HEX-DNA, PolD up to 600 nM, DP2(1-1061) up to 6 uM; settings: protein: recombinant;recombinant; tags: N-terminal 14xHis, TEV-cleaved;; copies: 1;1;1; 15 bp duplex, 5' overhang 5 nt on template
[3] = molecular target: T1, PolD DP1 H451A (exonuclease-deficient …); test: fluorescence anisotropy; Fluorescence anisotropy: 20 mM sodium succinate pH 6, 100 mM NaCl, 25 C, 5 nM HEX-DNA, PolD up to 600 nM, DP2(1-1061) up to 6 uM; settings: protein: recombinant;recombinant; tags: N-terminal 14xHis, TEV-cleaved;; copies: 1;1;1; 3'-HEX in assay text; 18 bp duplex, 5' overhang 7 nt on template
[4] = molecular target: T1, PolD DP1 H451A (exonuclease-deficient …); test: as above; settings: protein: recombinant;recombinant; tags: N-terminal 14xHis, TEV-cleaved;; copies: 1;1;1; 3'-HEX in assay text; blunt, 25 bp

T1 sequence (Q9V2F3 whole entry H451A, chain 1 of 3): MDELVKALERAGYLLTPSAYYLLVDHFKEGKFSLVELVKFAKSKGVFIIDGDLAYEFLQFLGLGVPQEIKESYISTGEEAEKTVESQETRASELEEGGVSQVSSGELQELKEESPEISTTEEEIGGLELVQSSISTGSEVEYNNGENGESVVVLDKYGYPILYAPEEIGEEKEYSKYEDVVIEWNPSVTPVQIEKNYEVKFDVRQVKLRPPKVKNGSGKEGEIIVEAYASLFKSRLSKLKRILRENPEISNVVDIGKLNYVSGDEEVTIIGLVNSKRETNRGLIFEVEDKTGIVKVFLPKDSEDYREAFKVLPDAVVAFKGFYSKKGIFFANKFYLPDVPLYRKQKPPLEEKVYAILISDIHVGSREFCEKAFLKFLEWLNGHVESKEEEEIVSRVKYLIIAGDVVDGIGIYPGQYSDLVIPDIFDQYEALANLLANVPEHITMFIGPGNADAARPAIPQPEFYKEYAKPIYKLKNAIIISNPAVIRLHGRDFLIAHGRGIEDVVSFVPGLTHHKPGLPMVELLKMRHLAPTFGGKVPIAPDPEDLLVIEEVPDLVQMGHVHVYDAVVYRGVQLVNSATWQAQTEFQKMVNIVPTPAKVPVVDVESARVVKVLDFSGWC
T1 sequence (Q9V2F4 1-954, chain 2 of 3): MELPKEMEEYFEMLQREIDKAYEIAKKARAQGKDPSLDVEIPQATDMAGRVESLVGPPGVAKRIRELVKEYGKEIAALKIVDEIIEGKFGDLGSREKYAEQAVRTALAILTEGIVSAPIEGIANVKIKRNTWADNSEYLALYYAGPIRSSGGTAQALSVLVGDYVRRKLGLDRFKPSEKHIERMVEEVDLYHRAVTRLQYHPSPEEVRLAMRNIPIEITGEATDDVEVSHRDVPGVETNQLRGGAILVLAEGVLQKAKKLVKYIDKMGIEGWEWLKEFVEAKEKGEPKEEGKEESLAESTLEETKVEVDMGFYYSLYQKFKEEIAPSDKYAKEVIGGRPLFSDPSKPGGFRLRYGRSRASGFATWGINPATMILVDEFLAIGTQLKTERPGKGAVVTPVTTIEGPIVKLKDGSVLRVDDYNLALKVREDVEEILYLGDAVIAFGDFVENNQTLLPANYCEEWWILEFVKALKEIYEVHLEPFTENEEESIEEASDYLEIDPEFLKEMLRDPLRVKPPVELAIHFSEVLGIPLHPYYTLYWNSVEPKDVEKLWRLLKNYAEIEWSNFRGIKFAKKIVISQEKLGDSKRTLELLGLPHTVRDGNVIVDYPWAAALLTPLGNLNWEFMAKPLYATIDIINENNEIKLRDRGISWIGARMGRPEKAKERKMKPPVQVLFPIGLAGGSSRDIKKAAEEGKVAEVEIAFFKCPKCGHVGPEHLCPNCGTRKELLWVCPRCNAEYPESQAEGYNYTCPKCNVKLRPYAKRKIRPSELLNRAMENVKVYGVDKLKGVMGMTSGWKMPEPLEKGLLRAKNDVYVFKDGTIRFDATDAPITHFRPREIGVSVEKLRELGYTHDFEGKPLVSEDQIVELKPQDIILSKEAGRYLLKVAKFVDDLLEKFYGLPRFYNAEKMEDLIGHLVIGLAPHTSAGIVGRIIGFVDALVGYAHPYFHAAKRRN
T1 sequence (Q9V2F4 1140-1455, chain 3 of 3): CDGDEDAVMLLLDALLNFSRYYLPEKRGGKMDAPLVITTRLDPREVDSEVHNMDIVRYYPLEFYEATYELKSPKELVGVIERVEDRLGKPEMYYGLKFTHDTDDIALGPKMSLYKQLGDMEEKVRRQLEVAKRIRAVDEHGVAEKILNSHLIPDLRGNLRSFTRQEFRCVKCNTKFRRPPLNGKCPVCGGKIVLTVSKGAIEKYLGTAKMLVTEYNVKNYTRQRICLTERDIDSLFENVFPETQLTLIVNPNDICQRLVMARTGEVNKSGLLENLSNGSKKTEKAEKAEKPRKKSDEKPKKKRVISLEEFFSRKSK
Sequence of Pyrococcus abyssi PolD DP1 subunit, exonuclease-deficient variant H451A, full length (Pyrococcus abyssi) (Q9V2F3 whole entry H451A): as the sequence (Q9V2F3 whole entry H451A, chain 1 of 3) above

Pyrococcus abyssi PolD DP2 subunit, full length (from UniProt Q9V2F4 1-1455) (enzyme)
stoichiometry N [1]: 1

B1: cryo-EM primer/template (dsDNA)
DNA 1: GAGACGGGCCGCGTC
DNA 2: ACTTTGACGCGGCCCGTCTC
binding result [2]: binds

B2: HEX primer/template (dsDNA)
DNA 1: CGCCGGGCCGAGCCGTGC
DNA 2: AGGTCGTGCACGGCTCGGCCCGGCG
Kd [3]: 0.015 µM

B3: HEX dsDNA (dsDNA)
DNA 1: CGCCGGGCCGAGCCGTGCACGACCT
DNA 2: AGGTCGTGCACGGCTCGGCCCGGCG
binding signal [4]: 6.5 fold weaker Kd than primer-template
